From US20260109742A1 (LUMEN BIOSCIENCE, published 2026)

Legend:
[1] = target: PP1113 (MBP-5HVZ-PAPA-RN-29-H6); experiment: analytical SEC, 5HVZ dimer with smAKAP clone at 1:2 molar ratio
[2] = target: PP1113 (MBP-5HVZ-PAPA-RN-29-H6); experiment: hydrabody complex of smAKAP-linked VHH dimer with 5HVZ homodimer
Procedure: Briefly, to Assess in vitro protease stability of clones, purified protein samples were prepared at 0.2 mg/mL in protease digestion buffer (20 mM Bis-Tris, 150 mM NaCl, 3 mM CaCl2 pH 6.0). The protease enzymes trypsin and chymotrypsin were diluted from 1 mg/mL stalk concentration to 0.2 mg/mL in protease digest buffer. Both the protein and enzyme were diluted 1:10 in protease digestion buffer. The digestion reactions were conducted by mixing 30 μL of diluted protein and 30 μL of diluted protease. The reactions were mixed by centrifugation for 30 seconds at high speed and incubated at 37° C. for 60 minutes with shaking at 900 rpm in an Eppendorf ThermoMixer. Reactions were quenched with an equal volume of stop buffer containing 2 mM PMSF and 2× Pierce protease inhibitor minitablet in PBS. The final concentration of each VHH homodimer after protease neutralization was 0.1 mg/mL. Samples were kept on ice for ELISA assay.
Digested protein samples were analyzed for binding activity via ELISA. High-binding ELISA plates were coated with 100 μl/well of 1 μg/mL SARS-COV-2 RBD in CBC binding buffer and incubated overnight at 4° C. Plates were washed 3× with PBS supplemented with 0.05% Tween-20 (PBS-tw), then blocked for 1 hour with 300 μl/well of blocking buffer (PBS-tw supplemented with 5% Non-fat dried milk). […] Absorbance was read at 450 nm with a Spectra Max M5 plate reader.

Binder	binding result [1]	binding result [2]
PP2455 (myctag-S3b-C8-smAKAP_R63E_C70S_C78G-S3b-C8-H6) (bispecific antibody, also called R63E mutant) MEQKLISEEDLSGGQVQLVESGGGLVQPGGSLRLSCAASGSIENIERMHWYRQAPGKQRELVAVIDSGGTTRYADSVKGRFTISRDNAKNTVYLQMNSLKPEDTAVYYCAAVWLTNAESTQEYWGQGTQVTVSSGGGGSTVILEYAHELSQDILSDALQQWAGGGSGSQVQLVESGGGLVQPGGSLRLSCAASGSIENIERMHWYRQAPGKQRELVAVIDSGGTTRYADSVKGRFTISRDNAKNTVYLQMNSLKPEDTAVYYCAAVWLTNAESTQEYWGQGTQVTVSSHHHHHH	binds	–
PP2456 (myctag-S3b-C8-smAKAP_R63E_C70S_W76S_C78G-S3b-C8-H6) (bispecific antibody, also called pp 2456 (W76S)) MEQKLISEEDLSGGQVQLVESGGGLVQPGGSLRLSCAASGSIENIERMHWYRQAPGKQRELVAVIDSGGTTRYADSVKGRFTISRDNAKNTVYLQMNSLKPEDTAVYYCAAVWLTNAESTQEYWGQGTQVTVSSGGGGSTVILEYAHELSQDILSDALQQSAGGGSGSQVQLVESGGGLVQPGGSLRLSCAASGSIENIERMHWYRQAPGKQRELVAVIDSGGTTRYADSVKGRFTISRDNAKNTVYLQMNSLKPEDTAVYYCAAVWLTNAESTQEYWGQGTQVTVSSHHHHHH	binds	–
PP1895 (S3B-C8_smAKAP-C70S_C78S_S3B-C8_H6) (bispecific antibody) MSGQVQLVESGGGLVQPGGSLRLSCAASGSIENIERMHWYRQAPGKQRELVAVIDSGGTTRYADSVKGRFTISRDNAKNTVYLQMNSLKPEDTAVYYCAAVWLTNAESTQEYWGQGTQVTVSSGGTVILEYAHRLSQDILSDALQQWASSGGGGSGGGGGQVQLVESGGGLVQPGGSLRLSCAASGSIENIERMHWYRQAPGKQRELVAVIDSGGTTRYADSVKGRFTISRDNAKNTVYLQMNSLKPEDTAVYYCAAVWLTNAESTQEYWGQGTQVTVSSGGSHHHHHH	–	binds
